Values of other authors as cited in paper PMC4845744.

Target: MutLα (Homo sapiens) (UniProt P40692)
Sequence (P40692 2-756, chain 1 of 2): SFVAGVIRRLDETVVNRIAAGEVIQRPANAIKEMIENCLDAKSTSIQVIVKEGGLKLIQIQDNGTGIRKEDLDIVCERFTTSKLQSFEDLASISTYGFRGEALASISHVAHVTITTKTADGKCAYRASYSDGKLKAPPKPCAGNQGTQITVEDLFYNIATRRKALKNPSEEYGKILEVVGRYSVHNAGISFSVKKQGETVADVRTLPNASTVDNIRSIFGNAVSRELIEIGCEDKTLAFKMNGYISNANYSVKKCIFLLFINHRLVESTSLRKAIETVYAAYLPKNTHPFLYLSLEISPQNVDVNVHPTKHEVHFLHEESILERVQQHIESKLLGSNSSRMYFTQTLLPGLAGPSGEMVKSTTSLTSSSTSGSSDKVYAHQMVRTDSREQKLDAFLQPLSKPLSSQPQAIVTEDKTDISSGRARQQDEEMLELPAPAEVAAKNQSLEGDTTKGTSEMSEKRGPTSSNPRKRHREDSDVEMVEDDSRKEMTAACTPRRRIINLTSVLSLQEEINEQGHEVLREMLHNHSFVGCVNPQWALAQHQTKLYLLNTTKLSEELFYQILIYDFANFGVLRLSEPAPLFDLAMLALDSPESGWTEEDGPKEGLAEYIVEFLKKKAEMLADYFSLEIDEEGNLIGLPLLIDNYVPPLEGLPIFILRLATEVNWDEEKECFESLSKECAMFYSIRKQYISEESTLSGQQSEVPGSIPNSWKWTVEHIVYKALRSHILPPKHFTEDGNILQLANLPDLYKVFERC
Sequence (P54278 whole entry, chain 2 of 2, further chain): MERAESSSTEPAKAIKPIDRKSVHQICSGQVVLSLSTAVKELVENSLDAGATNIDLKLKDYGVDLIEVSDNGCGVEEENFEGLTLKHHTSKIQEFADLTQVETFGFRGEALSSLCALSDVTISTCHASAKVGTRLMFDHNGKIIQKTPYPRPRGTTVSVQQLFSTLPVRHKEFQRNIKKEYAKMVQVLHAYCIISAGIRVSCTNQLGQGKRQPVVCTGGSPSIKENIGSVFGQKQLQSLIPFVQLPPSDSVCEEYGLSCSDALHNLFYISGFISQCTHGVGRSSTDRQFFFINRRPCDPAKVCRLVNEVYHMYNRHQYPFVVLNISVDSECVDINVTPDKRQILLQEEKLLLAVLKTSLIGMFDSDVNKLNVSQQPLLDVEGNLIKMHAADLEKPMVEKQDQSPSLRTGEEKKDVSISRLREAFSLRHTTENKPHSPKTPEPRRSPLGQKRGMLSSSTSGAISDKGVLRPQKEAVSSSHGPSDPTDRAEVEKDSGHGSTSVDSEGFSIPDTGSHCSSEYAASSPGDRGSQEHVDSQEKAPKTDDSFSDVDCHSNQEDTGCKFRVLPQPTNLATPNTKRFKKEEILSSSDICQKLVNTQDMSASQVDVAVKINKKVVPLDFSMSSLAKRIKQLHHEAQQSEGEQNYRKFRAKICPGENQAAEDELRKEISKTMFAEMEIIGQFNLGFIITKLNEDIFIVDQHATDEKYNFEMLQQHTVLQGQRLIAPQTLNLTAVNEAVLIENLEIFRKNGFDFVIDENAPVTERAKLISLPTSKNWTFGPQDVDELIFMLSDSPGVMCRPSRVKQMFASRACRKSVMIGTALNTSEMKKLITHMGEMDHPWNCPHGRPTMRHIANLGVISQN

Kd: 0.25 µM
Substance: MutSβ (from UniProt P43246)
